# Assay results: publication PMC12207370, “Macrocyclic Peptide Probes for Immunomodulatory Protein CD59: Potent Modulators of Bacterial Toxin Activity and Antibody‐Dependent Cytotoxicity” (Angewandte Chemie (International Ed. in English), 2025)
# Target: T1, biotinylated CD59 (Homo sapiens, UniProt P13987)
# T1 construct: Recombinant soluble human CD59 with an additional C-terminal cysteine residue
# T1 sequence (P13987 26-102 limits assumed): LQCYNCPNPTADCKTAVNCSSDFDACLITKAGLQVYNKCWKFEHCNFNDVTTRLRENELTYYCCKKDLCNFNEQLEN
# Assay: mRNA-display cyclic peptide screen against CD59-biotin, NGS abundance after 6th selection round
# Details: for Percentage Seq I: counts normalised by total counts of sample Seq I; for Percentage Seq I / Percentage Seq II: percentage of the pool; for Percentage Seq I / Percentage Seq II / Percentage Average / Percentage of the pool, averaged across the two sequencing samples / Percentage of the pool, Seq I / Percentage of the pool, Seq II: sheet R6; for Percentage Seq II: counts normalised by total counts of sample Seq II; for Percentage Average: percentage of the pool averaged across the two sequencing samples; for Counts Seq I / Counts Seq II: raw NGS counts of peptide sequence; for Counts Seq I: sequencing sample Seq I; for Counts Seq I / Counts Seq II / Counts (raw counts for peptide sequence), Seq I / Counts (raw counts for peptide sequence), Seq II: sheet R6 (6th selection round); for Counts Seq II: sequencing sample Seq II; for Counts (raw counts for peptide sequence), Seq I: NGS sample Seq I; for Counts (raw counts for peptide sequence), Seq II: NGS sample Seq II; for Percentage of the pool, averaged across the two sequencing samples: average of Seq I and Seq II; for Percentage of the pool, Seq I: counts normalised by total counts of NGS sample Seq I; for Percentage of the pool, Seq II: counts normalised by total counts of NGS sample Seq II
# Summary of the method: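 Peptide–mRNA fusions were made by in vitro translation with a customised PURE express kit. The kit lacked release factor 1 and methionine and was supplemented with […] initiator tRNA carrying N-chloroacetyl-d-tyrosine. Thioether macrocycles were formed, then enriched and amplified over iterative rounds on CD59-biotin immobilised on streptavidin beads. NGS read counts per sequence were recorded after the 6th selection round.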
sequence,measurement,value
LLGTRDYVRLWH,Percentage Seq I,0.144%
same,Percentage Seq II,0.139%
same,Percentage Average,0.142%
same,Counts Seq I,630
same,Counts Seq II,60
FQYFGTGIAFG,Percentage Seq I,0.301%
same,Percentage Seq II,0.325%
same,Percentage Average,0.313%
same,Counts Seq I,1316
same,Counts Seq II,140
CFALRLSQTSV,Percentage Seq I,0.018%
same,Percentage Seq II,0.042%
same,Percentage Average,0.030%
same,Counts Seq I,78
same,Counts Seq II,18
WIYGGRHFRLS,"Counts (raw counts for peptide sequence), Seq I",82
same,"Counts (raw counts for peptide sequence), Seq II",2
same,"Percentage of the pool, averaged across the two sequencing samples",0.012%
same,"Percentage of the pool, Seq I",0.019%
same,"Percentage of the pool, Seq II",0.00464%
HVFGNRPFTRG,"Counts (raw counts for peptide sequence), Seq I",73
same,"Counts (raw counts for peptide sequence), Seq II",5
same,"Percentage of the pool, averaged across the two sequencing samples",0.014%
same,"Percentage of the pool, Seq I",0.017%
same,"Percentage of the pool, Seq II",0.012%
FITGNRDHTRG,Percentage Seq I,0.018%
same,Percentage Seq II,0.026%
same,Percentage Average,0.022%
same,Counts Seq I,78
same,Counts Seq II,11
SWTWGNRSSVRG,Percentage Seq I,2.910%
same,Percentage Seq II,2.799%
same,Percentage Average,2.855%
same,Counts Seq I,12733
same,Counts Seq II,1206
SKNGLTFLCS,Percentage Seq I,0.016%
same,Percentage Seq II,0.032%
same,Percentage Average,0.024%
same,Counts Seq I,70
same,Counts Seq II,14
FVRGDLNSVLG,"Counts (raw counts for peptide sequence), Seq I",69
same,"Counts (raw counts for peptide sequence), Seq II",5
same,"Percentage of the pool, averaged across the two sequencing samples",0.014%
same,"Percentage of the pool, Seq I",0.016%
same,"Percentage of the pool, Seq II",0.012%
CFVRRLNDLTTT,Percentage Seq I,0.121%
same,Percentage Seq II,0.137%
same,Percentage Average,0.129%
same,Counts Seq I,528
same,Counts Seq II,59
CFAGRLTIGAV,Percentage Seq I,0.056%
same,Percentage Seq II,0.056%
same,Percentage Average,0.056%
same,Counts Seq I,245
same,Counts Seq II,24
CYGGRTFTYAWS,Percentage Seq I,0.241%
same,Percentage Seq II,0.306%
same,Percentage Average,0.274%
same,Counts Seq I,1056
same,Counts Seq II,132
FVTGNRDRTRG,Percentage Seq I,0.019%
same,Percentage Seq II,0.026%
same,Percentage Average,0.022%
same,Counts Seq I,81
same,Counts Seq II,11
FVSGNSRFRRE,Percentage Seq I,0.062%
same,Percentage Seq II,0.070%
same,Percentage Average,0.066%
same,Counts Seq I,270
same,Counts Seq II,30
CFAGRLTVDAV,Percentage Seq I,0.037%
same,Percentage Seq II,0.030%
same,Percentage Average,0.034%
same,Counts Seq I,163
same,Counts Seq II,13
CYGGRTLIYAWS,Percentage Seq I,0.028%
same,Percentage Seq II,0.019%
same,Percentage Average,0.023%
same,Counts Seq I,121
same,Counts Seq II,8
AVHGSSFYVWG,Percentage Seq I,0.037%
same,Percentage Seq II,0.039%
same,Percentage Average,0.038%
same,Counts Seq I,164
same,Counts Seq II,17
CKIDVYGRTWS,"Counts (raw counts for peptide sequence), Seq I",81
same,"Counts (raw counts for peptide sequence), Seq II",5
same,"Percentage of the pool, averaged across the two sequencing samples",0.015%
same,"Percentage of the pool, Seq I",0.019%
same,"Percentage of the pool, Seq II",0.012%
FIRGNSTSVLC,"Counts (raw counts for peptide sequence), Seq I",36
same,"Counts (raw counts for peptide sequence), Seq II",5
same,"Percentage of the pool, averaged across the two sequencing samples",0.010%
same,"Percentage of the pool, Seq I",0.008%
same,"Percentage of the pool, Seq II",0.012%
CFQNRVSGSGAL,Percentage Seq I,0.119%
same,Percentage Seq II,0.116%
same,Percentage Average,0.118%
same,Counts Seq I,522
same,Counts Seq II,50
CFAYRTHTTAV,"Counts (raw counts for peptide sequence), Seq I",63
same,"Counts (raw counts for peptide sequence), Seq II",6
same,"Percentage of the pool, averaged across the two sequencing samples",0.014%
same,"Percentage of the pool, Seq I",0.014%
same,"Percentage of the pool, Seq II",0.014%
FVTGNSDHTRG,"Counts (raw counts for peptide sequence), Seq I",52
same,"Counts (raw counts for peptide sequence), Seq II",4
same,"Percentage of the pool, averaged across the two sequencing samples",0.011%
same,"Percentage of the pool, Seq I",0.012%
same,"Percentage of the pool, Seq II",0.009%
TFAHRVGSCQST,Percentage Seq I,0.019%
same,Percentage Seq II,0.026%
same,Percentage Average,0.022%
same,Counts Seq I,85
same,Counts Seq II,11
WRDRFDRCVL,Percentage Seq I,0.020%
same,Percentage Seq II,0.032%
same,Percentage Average,0.026%
same,Counts Seq I,86
same,Counts Seq II,14
TSYGSRVFAYF,Percentage Seq I,0.031%
same,Percentage Seq II,0.030%
same,Percentage Average,0.031%
same,Counts Seq I,135
same,Counts Seq II,13
CFAGRLTEGV,Percentage Seq I,0.035%
same,Percentage Seq II,0.044%
same,Percentage Average,0.040%
same,Counts Seq I,155
same,Counts Seq II,19
CFAGRLTTDAV,Percentage Seq I,0.044%
same,Percentage Seq II,0.044%
same,Percentage Average,0.044%
same,Counts Seq I,193
same,Counts Seq II,19
WATGSATFSSG,Percentage Seq I,0.730%
same,Percentage Seq II,0.673%
same,Percentage Average,0.702%
same,Counts Seq I,3196
same,Counts Seq II,290
VAHGSKKSQFW,Percentage Seq I,0.088%
same,Percentage Seq II,0.104%
same,Percentage Average,0.096%
same,Counts Seq I,386
same,Counts Seq II,45
HVFGNRSFARG,"Counts (raw counts for peptide sequence), Seq I",78
same,"Counts (raw counts for peptide sequence), Seq II",6
same,"Percentage of the pool, averaged across the two sequencing samples",0.016%
same,"Percentage of the pool, Seq I",0.018%
same,"Percentage of the pool, Seq II",0.014%
QPFWGCRTVAYS,Percentage Seq I,0.033%
same,Percentage Seq II,0.049%
same,Percentage Average,0.041%
same,Counts Seq I,144
same,Counts Seq II,21
ASWLPSPCKFN,Percentage Seq I,0.029%
same,Percentage Seq II,0.037%
same,Percentage Average,0.033%
same,Counts Seq I,128
same,Counts Seq II,16
QWNRWYGIDER,Percentage Seq I,0.021%
same,Percentage Seq II,0.023%
same,Percentage Average,0.022%
same,Counts Seq I,94
same,Counts Seq II,10
SVGGSRSWTRG,Percentage Seq I,0.129%
same,Percentage Seq II,0.146%
same,Percentage Average,0.138%
same,Counts Seq I,566
same,Counts Seq II,63
CFSARAVLDGGW,"Counts (raw counts for peptide sequence), Seq I",59
same,"Counts (raw counts for peptide sequence), Seq II",3
same,"Percentage of the pool, averaged across the two sequencing samples",0.010%
same,"Percentage of the pool, Seq I",0.013%
same,"Percentage of the pool, Seq II",0.007%
VVRGGTAFRYE,Percentage Seq I,0.022%
same,Percentage Seq II,0.026%
same,Percentage Average,0.024%
same,Counts Seq I,96
same,Counts Seq II,11
FVRGDQYSVLG,Percentage Seq I,0.056%
same,Percentage Seq II,0.081%
same,Percentage Average,0.069%
same,Counts Seq I,247
same,Counts Seq II,35
CFSPRVTEHST,"Counts (raw counts for peptide sequence), Seq I",62
same,"Counts (raw counts for peptide sequence), Seq II",8
same,"Percentage of the pool, averaged across the two sequencing samples",0.016%
same,"Percentage of the pool, Seq I",0.014%
same,"Percentage of the pool, Seq II",0.019%
LVRGDLYSVLG,"Counts (raw counts for peptide sequence), Seq I",85
same,"Counts (raw counts for peptide sequence), Seq II",7
same,"Percentage of the pool, averaged across the two sequencing samples",0.018%
same,"Percentage of the pool, Seq I",0.019%
same,"Percentage of the pool, Seq II",0.016%
SAWGNRQIQYH,"Counts (raw counts for peptide sequence), Seq I",65
same,"Counts (raw counts for peptide sequence), Seq II",7
same,"Percentage of the pool, averaged across the two sequencing samples",0.016%
same,"Percentage of the pool, Seq I",0.015%
same,"Percentage of the pool, Seq II",0.016%
CFTHRLTDFGT,Percentage Seq I,0.053%
same,Percentage Seq II,0.070%
same,Percentage Average,0.061%
same,Counts Seq I,230
same,Counts Seq II,30
IIRGNRLTKYE,Percentage Seq I,0.020%
same,Percentage Seq II,0.026%
same,Percentage Average,0.023%
same,Counts Seq I,86
same,Counts Seq II,11
CFKHRLGTDSA,Percentage Seq I,0.097%
same,Percentage Seq II,0.086%
same,Percentage Average,0.091%
same,Counts Seq I,423
same,Counts Seq II,37
IARGDWNHQFY,Percentage Seq I,0.514%
same,Percentage Seq II,0.450%
same,Percentage Average,0.482%
same,Counts Seq I,2249
same,Counts Seq II,194
SAWGNRQIQYF,Percentage Seq I,0.023%
same,Percentage Seq II,0.030%
same,Percentage Average,0.027%
same,Counts Seq I,102
same,Counts Seq II,13
LWWSDFYLCVVVRQRQRQLGRGAE,"Counts (raw counts for peptide sequence), Seq I",65
same,"Counts (raw counts for peptide sequence), Seq II",7
same,"Percentage of the pool, averaged across the two sequencing samples",0.016%
same,"Percentage of the pool, Seq I",0.015%
same,"Percentage of the pool, Seq II",0.016%
SVRGDLYSVLG,"Counts (raw counts for peptide sequence), Seq I",74
same,"Counts (raw counts for peptide sequence), Seq II",7
same,"Percentage of the pool, averaged across the two sequencing samples",0.017%
same,"Percentage of the pool, Seq I",0.017%
same,"Percentage of the pool, Seq II",0.016%
